Measurements from patent US20200332324.

Molecular target: T1, E. coli type II fatty acid synthase ACP (AcpP), P0A6A8
T1 chain: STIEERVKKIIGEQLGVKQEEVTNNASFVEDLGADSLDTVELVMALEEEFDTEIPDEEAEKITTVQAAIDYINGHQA

B1: 4'-phosphopantetheinyl transferase Sfp from Bacillus subtilis (protein)
chain: MKIYGIYMDRPLSQEENERFMSFISPEKREKCRRFYHKEDAHRTLLGDVLVRSVISRQYQLDKSDIRFSTQEYGKPCIPDLPDAHFNISHSGRWVICAFDSQPIGIDIEKTKPISLEIAKRFFSKTEYSDLLAKDKDEQTDYFYHLWSMKESFIKQEGKGLSLPLDSFSVRLHQDGQVSIELPDSHSPCYIKTYEVDPGYKMAVCAAHPDFPEDITMVSYEELL
  ACP phosphopantetheinylation with fluorescently labeled CoA (TAMRA-CoA), SDS-PAGE, UV fluorescence: protein extracts from all the recombinant cyanobacteria strains constructed here allowed the conversion of E. coli ACP to its fluorescently labeled derivative
